Paper doi:10.1101/2021.05.24.445390 (bioRxiv, 2021)

Target: Tetanus neurotoxin (TeNT) (Clostridium tetani strain Y-IV-3 (WS …, UniProt P04958))
Assay: SPR

Chain of Tetanus neurotoxin (TeNT) (Clostridium tetani strain Y-IV-3 (P04958 1-457, chain 1 of 2): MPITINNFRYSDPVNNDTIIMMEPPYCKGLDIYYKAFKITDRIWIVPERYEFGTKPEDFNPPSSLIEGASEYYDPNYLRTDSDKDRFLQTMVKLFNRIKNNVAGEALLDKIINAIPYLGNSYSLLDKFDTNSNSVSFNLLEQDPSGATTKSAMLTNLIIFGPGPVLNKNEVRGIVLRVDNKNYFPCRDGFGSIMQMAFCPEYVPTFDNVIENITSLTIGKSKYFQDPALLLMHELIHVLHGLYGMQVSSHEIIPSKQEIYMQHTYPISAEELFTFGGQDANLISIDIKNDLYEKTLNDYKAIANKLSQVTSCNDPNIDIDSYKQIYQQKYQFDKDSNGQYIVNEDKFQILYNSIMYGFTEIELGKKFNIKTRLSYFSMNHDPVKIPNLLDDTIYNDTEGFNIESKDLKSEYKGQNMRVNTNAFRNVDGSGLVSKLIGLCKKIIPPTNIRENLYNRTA
Chain of Tetanus neurotoxin (TeNT) (Clostridium tetani strain Y-IV-3 (P04958 458-1315, chain 2 of 2): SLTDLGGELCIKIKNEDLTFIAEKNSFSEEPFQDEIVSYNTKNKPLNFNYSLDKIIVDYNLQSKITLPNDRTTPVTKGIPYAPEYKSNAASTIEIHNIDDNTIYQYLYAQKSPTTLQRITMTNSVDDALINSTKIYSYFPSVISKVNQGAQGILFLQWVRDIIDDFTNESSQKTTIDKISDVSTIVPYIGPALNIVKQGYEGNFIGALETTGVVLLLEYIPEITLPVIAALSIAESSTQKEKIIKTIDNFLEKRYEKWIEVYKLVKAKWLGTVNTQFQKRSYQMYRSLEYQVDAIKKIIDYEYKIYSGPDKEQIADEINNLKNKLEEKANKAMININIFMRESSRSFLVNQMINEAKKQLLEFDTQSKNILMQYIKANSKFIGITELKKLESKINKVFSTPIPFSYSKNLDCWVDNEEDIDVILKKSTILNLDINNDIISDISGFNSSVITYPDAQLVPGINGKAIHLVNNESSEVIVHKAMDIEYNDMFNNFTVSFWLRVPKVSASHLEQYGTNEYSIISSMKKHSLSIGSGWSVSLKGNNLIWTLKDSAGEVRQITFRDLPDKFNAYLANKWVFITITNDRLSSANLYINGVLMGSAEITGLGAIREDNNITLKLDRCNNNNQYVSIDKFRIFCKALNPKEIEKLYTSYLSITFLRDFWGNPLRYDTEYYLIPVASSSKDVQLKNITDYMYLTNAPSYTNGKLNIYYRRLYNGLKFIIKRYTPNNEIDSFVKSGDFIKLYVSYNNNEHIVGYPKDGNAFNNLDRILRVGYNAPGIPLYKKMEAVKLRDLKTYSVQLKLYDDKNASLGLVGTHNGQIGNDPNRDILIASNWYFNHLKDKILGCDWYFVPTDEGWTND

B1: TT104-Fab (Fab, V domains shown)
VH: QLQLQESGPGLVRPSETLSLTCSVSDDSMGSSTYYWAWIRQPPGKGLEWIGNVYYNGVTYYNSSLESRLTLSIDPSKNQFSLILSSVTAADTAVYYCARQADNWFDPWGQGTLVTVSS
VL: IMMTQSPATLSVSPGERATLSCRASQSVGSDLAWYQQKPGQAPRLLIYGASYRATGIPARFSGGGSGTEFTLTISSMQSEDFAVYYCQQYYNWPPYTFGQGTKVEIK
  Kd: 0.0067 nM

B2: TT110-Fab (Fab, V domains shown)
VH: QVQLMQSGAEVQKPGASVKVSCQASGFTLNNYYIHWLRQAPGQGFEWMGIFNPSSGTRTYAQKFQGRISMTADASTTTLYMELSGLTSEDAGVYFCARIGGSTYGRLMTYYFDHWGQGTVVAVSS
VL: VLTQGPVTLSVSPGGRGTLSCRASRSISTTLAWYQQKPGQAPRLLIYGASTRATGIPARFTGSGSGTEFTLTISSLQSEDFAVYYCQQYNDWPVTFGQGTQVEVK
  Kd: 3 nM
